Target: T1, integrin β3 (endogenous, platelets) (mouse (endogenous in platelets), UniProt O54890 26-787)
T1 construct: integrin β3 endogenous in platelets, precipitated with an anti-integrin β3 antibody; platelets were prepared from mice; In platelets β3 stands in the integrin αIIbβ3; also called platelet integrin β3; β3 integrin; source: endogenous, platelet lysate (NP-40 lysis buffer)
T1 sequence (looked up): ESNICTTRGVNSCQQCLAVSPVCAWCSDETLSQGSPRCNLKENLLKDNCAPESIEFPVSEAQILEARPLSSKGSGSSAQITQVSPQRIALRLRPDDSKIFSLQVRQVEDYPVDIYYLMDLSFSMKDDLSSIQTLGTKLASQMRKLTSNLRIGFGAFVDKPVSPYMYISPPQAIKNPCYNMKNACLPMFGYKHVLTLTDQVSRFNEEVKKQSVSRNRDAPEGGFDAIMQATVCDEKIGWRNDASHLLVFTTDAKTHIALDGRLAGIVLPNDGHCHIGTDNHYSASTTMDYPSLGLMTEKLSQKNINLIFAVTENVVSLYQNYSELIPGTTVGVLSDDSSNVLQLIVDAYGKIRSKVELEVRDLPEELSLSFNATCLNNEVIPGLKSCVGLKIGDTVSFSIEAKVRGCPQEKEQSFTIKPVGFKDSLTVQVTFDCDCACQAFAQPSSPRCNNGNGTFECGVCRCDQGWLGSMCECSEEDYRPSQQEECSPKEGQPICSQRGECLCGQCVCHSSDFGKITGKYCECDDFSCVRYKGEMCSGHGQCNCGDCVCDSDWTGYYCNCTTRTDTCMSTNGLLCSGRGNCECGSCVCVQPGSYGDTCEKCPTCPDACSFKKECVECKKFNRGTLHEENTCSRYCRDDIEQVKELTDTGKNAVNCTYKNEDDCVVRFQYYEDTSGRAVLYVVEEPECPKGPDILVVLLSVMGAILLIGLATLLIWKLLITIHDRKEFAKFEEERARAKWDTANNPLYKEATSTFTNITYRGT
Test: co-IP; platelets pretreated with 0.1 % DMSO, 100 μM isoflavones or 3 μM SQ29548, stimulated with 0.04 U/mL thrombin, lysed in NP-40 lysis buffer; precipitated with integrin β3 antibody and protein A magnetic beads overnight at 4 °C; western blot
Conditions: partners not purified

- fold increase of co-precipitated 14-3-3ζ on platelet activation against resting platelets: 2.7 fold
B1: 14-3-3ζ (endogenous, platelets) (natural protein, mouse (endogenous in platelets), UniProt P63101 1-245, looked up)
chain: MDKNELVQKAKLAEQAERYDDMAACMKSVTEQGAELSNEERNLLSVAYKNVVGARRSSWRVVSSIEQKTEGAEKKQQMAREYREKIETELRDICNDVLSLLEKFLIPNASQPESKVFYLKMKGDYYRYLAEVAAGDDKKGIVDQSQQAYQEAFEISKKEMQPTHPIRLGLALNFSVFYYEILNSPEKACSLAKTAFDEAIAELDTLSEESYKDSTLIMQLLRDNLTLWTSDTQGDEAEAGEGGEN
notes: 14-3-3ζ endogenous in platelets; platelets were prepared from mice; The methods tell of platelets prepared from wild type and GPIbα deficient mice only; the species is not repeated for the co-immunoprecipitation; source: endogenous, platelet lysate (NP-40 lysis buffer)
